Laboratory results taken from US20240116985A1, “STAPLED PEPTIDES AND METHODS THEREOF” (priority 2020, published 2024).
Blank lines part the entries; values can stand above or below the binder they belong to. Starred links: 1 amine or outer side, 2 acyl side, 3 side chain; linkers in the order of their positions; H or OH if unused. Positions of bridges follow the written chain, without caps; N, C: chain ends. Non-standard residues stand in square brackets, D forms with d. Primed or numbered codes have the meaning given here. B5(15) = 2-amino-2-(pent-4-en-1-yl)hept-6-enoic acid (2,2-bis(4-pentenyl)glycine), stitching residue bearing two staples, C=CCCCC(CCCC=C)(N[*:1])C(=O)[*:2]; PyrS2″ = (S)-3-amino-1-((pent-4-en-1-yloxy)carbonyl)pyrrolidine-3-carboxylic acid (stapling residue), C=CCCCOC(=O)N1CC[C@@](N[*:1])(C(=O)[*:2])C1; B5(18) = 2,2-bis(4-pentenyl)glycine (2-amino-2-(pent-4-en-1-yl)hept-6-enoic acid), stitching residue, C=CCCCC(CCCC=C)(N[*:1])C(=O)[*:2]; B5(23) = 2-amino-2-(pent-4-en-1-yl)hept-6-enoic acid (2,2-bis(4-pentenyl)glycine), stitching residue, C=CCCCC(CCCC=C)(N[*:1])C(=O)[*:2]; B5(4) = 2,2-bis(4-pentenyl)glycine = 2-amino-2-(pent-4-en-1-yl)hept-6-enoic acid (stitching residue), C=CCCCC(CCCC=C)(N[*:1])C(=O)[*:2]; B5(5) = 2,2-bis(4-pentenyl)glycine, 2-amino-2-(pent-4-en-1-yl)hept-6-enoic acid (stitching residue), C=CCCCC(CCCC=C)(N[*:1])C(=O)[*:2]; B5(21) = 2-amino-2-(pent-4-en-1-yl)hept-6-enoic acid, bis(4-pentenyl)glycine (stitching residue), C=CCCCC(CCCC=C)(N[*:1])C(=O)[*:2]; TfeGA = (S)-2-amino-3-((carboxymethyl)(2,2,2-trifluoroethyl)amino)propanoic acid, O=C([C@H](CN(CC(=O)[*:3])CC(F)(F)F)N[*:1])[*:2]; PyrS2 = (S)-3-amino-1-((pent-4-en-1-yloxy)carbonyl)pyrrolidine-3-carboxylic acid, C=CCCCOC(=O)N1CC[C@@](N[*:1])(C(=O)[*:2])C1; B5(25) = 2-amino-2-(pent-4-en-1-yl)hept-6-enoic acid (stitching residue), C=CCCCC(CCCC=C)(N[*:1])C(=O)[*:2]; EtGA = (S)-2-amino-3-((carboxymethyl)(ethyl)amino)propanoic acid, CCN(CC(=O)[*:3])C[C@H](N[*:1])C(=O)[*:2]; B5(3) = 2,2-bis(4-pentenyl)glycine (stitching residue), C=CCCCC(CCCC=C)(N[*:1])C(=O)[*:2]; B5 = 2-amino-2-(pent-4-en-1-yl)hept-6-enoic acid, C=CCCCC(CCCC=C)(N[*:1])C(=O)[*:2]; Phe(3-COOH) = N[C@@H](Cc1cccc(C(=O)O)c1)C(=O)O; Phe(2-Cl) = N[C@@H](Cc1ccccc1Cl)C(=O)O; Bta = N[C@@H](Cc1csc2ccccc12)C(=O)O; αAllylPro = C=CC[C@@]1(C(=O)O)CCCN1; tBuAla = CC(C)(C)C[C@H](N)C(=O)O; 2Thi = N[C@@H](Cc1cccs1)C(=O)O; 3Thi = N[C@@H](Cc1ccsc1)C(=O)O; Cha = N[C@@H](CC1CCCCC1)C(=O)O; S8 = C=CCCCCCC[C@](C)(N)C(=O)O; hLeu = CC(C)CC[C@H](N)C(=O)O; hSer = N[C@@H](CCO)C(=O)O; Aib = CC(C)(N)C(=O)O

Tests used:
[1] = biological target: full-length beta-Catenin (Uniprot ID P35222) (Homo sapiens (Human)) (UniProt P35222); assay: fluorescence polarization competition; full-length beta-catenin, competitor 5FAM-TCF4(10-53) probe
[2] = biological target: full-length beta-Catenin (Uniprot ID P35222) (Homo sapiens (Human)) (UniProt P35222); assay: fluorescence polarization competition; full-length beta-catenin; competitor 5FAM-TCF4(10-53) probe
Target sequence in this assay (P35222 whole entry, one chain of several): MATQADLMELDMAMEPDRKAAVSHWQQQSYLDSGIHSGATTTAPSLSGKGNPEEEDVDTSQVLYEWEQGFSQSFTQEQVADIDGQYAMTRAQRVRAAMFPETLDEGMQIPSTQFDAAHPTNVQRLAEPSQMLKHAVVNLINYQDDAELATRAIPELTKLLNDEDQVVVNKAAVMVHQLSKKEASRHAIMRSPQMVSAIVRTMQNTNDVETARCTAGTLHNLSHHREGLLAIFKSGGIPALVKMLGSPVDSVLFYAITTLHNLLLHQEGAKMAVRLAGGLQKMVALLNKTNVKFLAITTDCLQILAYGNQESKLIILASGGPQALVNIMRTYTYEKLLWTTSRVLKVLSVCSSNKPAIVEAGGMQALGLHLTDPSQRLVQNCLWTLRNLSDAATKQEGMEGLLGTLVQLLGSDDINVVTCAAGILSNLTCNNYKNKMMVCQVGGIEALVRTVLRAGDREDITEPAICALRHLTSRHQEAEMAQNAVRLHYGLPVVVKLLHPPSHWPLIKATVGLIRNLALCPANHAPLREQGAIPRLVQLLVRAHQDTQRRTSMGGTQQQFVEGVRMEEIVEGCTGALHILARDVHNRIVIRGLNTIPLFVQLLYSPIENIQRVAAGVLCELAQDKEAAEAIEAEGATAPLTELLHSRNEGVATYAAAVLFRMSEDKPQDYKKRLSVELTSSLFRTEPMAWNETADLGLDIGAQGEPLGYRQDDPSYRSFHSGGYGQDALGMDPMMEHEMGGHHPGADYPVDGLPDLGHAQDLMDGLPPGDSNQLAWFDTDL

[3] = biological target: full-length beta-Catenin (Uniprot ID P35222) (Homo sapiens (Human)) (UniProt P35222); assay: fluorescence polarization competition; displaces 5FAM-TCF4(10-53) from full-length beta-catenin
Target sequence in this assay (P35222 2-781 limits assumed): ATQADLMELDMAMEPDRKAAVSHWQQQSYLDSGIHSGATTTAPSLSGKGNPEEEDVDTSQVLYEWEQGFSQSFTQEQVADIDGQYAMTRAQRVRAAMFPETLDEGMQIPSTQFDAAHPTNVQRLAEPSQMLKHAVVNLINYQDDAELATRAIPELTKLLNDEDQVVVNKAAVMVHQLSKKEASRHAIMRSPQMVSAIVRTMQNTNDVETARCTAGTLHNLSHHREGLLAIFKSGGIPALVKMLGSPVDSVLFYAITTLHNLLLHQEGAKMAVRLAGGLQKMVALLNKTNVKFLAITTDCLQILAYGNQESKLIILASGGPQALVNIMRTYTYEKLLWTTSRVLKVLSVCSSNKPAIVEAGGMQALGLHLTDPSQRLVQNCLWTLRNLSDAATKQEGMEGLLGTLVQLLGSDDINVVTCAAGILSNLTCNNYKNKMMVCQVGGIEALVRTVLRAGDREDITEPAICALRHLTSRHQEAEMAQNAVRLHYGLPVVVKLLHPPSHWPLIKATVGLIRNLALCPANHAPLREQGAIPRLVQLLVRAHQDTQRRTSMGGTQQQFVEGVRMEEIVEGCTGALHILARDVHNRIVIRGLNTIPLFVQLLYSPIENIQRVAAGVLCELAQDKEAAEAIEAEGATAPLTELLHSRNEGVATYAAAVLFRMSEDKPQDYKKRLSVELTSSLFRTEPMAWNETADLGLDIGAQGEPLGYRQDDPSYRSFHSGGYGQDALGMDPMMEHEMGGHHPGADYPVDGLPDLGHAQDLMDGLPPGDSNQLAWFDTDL

[4] = biological target: full-length beta-Catenin (Uniprot ID P35222) (Homo sapiens (Human)) (UniProt P35222); assay: fluorescence polarization competition; 10 nM full-length beta-catenin + 10 nM 5FAM-TCF4(10-53) probe
Target sequence in this assay (P35222 whole entry, one chain of several): as the sequence (P35222 whole entry, one chain of several) above

[5] = biological target: full-length beta-Catenin (Uniprot ID P35222) (Homo sapiens (Human)) (UniProt P35222); assay: fluorescence polarization competition vs 5FAM-TCF4(10-53) on full-length beta-catenin
Target sequence in this assay (P35222 2-781 limits assumed): as the sequence (P35222 2-781 limits assumed) above

[6] = biological target: full-length beta-Catenin (Uniprot ID P35222) (Homo sapiens (Human)) (UniProt P35222); assay: fluorescence polarization competition; full-length beta-catenin with 5FAM-labeled TCF4 (10-53) probe as competitor
Target sequence in this assay (P35222 whole entry, one chain of several): as the sequence (P35222 whole entry, one chain of several) above

[7] = biological target: full-length beta-Catenin (Uniprot ID P35222) (Homo sapiens (Human)) (UniProt P35222); assay: fluorescence polarization competition: peptide titrated against 10 nM full-length beta-catenin + 10 nM 5FAM-TCF4(10-53) probe
Target sequence in this assay (P35222 2-781 limits assumed): as the sequence (P35222 2-781 limits assumed) above

[8] = biological target: beta-catenin (Homo sapiens (Human)) (UniProt P35222); assay: fluorescence polarization competition; full-length beta-catenin with 5FAM-TCF4(10-53) probe as competitor
beta-catenin (Homo sapiens (Human)), sequence (P35222 whole entry): as the sequence (P35222 whole entry, one chain of several) above

[9] = biological target: full-length beta-Catenin (Uniprot ID P35222) (Homo sapiens (Human)) (UniProt P35222); assay: cell-based or functional assay
Target sequence in this assay (P35222 2-781 limits assumed): as the sequence (P35222 2-781 limits assumed) above

[10] = biological target: full-length beta-Catenin (Uniprot ID P35222) (Homo sapiens (Human)) (UniProt P35222); assay: fluorescence polarization competition; displacement of 5FAM-TCF4(10-53) from full-length beta-catenin
Target sequence in this assay (P35222 whole entry, one chain of several): as the sequence (P35222 whole entry, one chain of several) above

[11] = biological target: full-length beta-Catenin (Uniprot ID P35222) (Homo sapiens (Human)) (UniProt P35222); assay: fluorescence polarization competition; full-length beta-catenin with 5FAM-TCF4(10-53) probe as competitor
Target sequence in this assay (P35222 2-781 limits assumed): as the sequence (P35222 2-781 limits assumed) above

[12] = biological target: full-length beta-Catenin (Uniprot ID P35222) (Homo sapiens (Human)) (UniProt P35222); assay: fluorescence polarization competition; full-length beta-catenin, competitor probe 5FAM-TCF4(10-53)
Target sequence in this assay (P35222 2-781 limits assumed): as above

IC50 [1]: 24 nM
EC50 [2]: 24 nM
Binder: Ac-[αAllylPro]D[Cha][B5(21)]DTAAFT[PyrS2″][Phe(2-Cl)][Bta]Q-NH2 (staple 1-4, 4-11) [I-1175]

EC50 [3]: 42 nM
IC50 [4]: 42 nM
Binder: Ac-[αAllylPro]D[tBuAla][B5(5)]D[TfeGA]AIFN[PyrS2″][Phe(2-Cl)][Bta]Q-NH2 (staple 1-4, 4-11) [I-1005]

IC50 [1]: 6560 nM
EC50 [8]: 6560 nM
Binder: Ac-[αAllylPro]D[tBuAla][B5(4)]DLAAFL[PyrS2″][3Thi][Bta]Q-NH2 (staple 1-4, 4-11) [I-1444]

IC50 [1]: 169 nM
EC50 [2]: 169 nM
Binder: Ac-[αAllylPro]D[Cha][B5(21)]DTAAFL[PyrS2″][Phe(2-Cl)][Bta]Q-NH2 (staple 1-4, 4-11) [I-1176]

IC50 [3]: 42 nM
Binder: Ac-[αAllylPro]D[hLeu][B5(15)]DEAAFL[S8]F[Bta]Q-NH2 (staple 1-4, 4-11) [I-1536]

EC50 [3]: 5 nM
IC50 [4]: 5 nM
Binder: Ac-[αAllylPro]D[tBuAla][B5(18)]D[TfeGA]AKFN[PyrS2″][Phe(2-Cl)][Bta]Q-NH2 (staple 1-4, 4-11) [I-1006]

IC50 [1]: 12 nM
EC50 [2]: 12 nM
Binder: Ac-[αAllylPro]D[Cha][B5(4)]DTAAFT[PyrS2″][3Thi][Bta]Q-NH2 (staple 1-4, 4-11) [I-1173]

IC50 [1]: 346 nM
EC50 [2]: 346 nM
Binder: Ac-[αAllylPro]D[tBuAla][B5(21)]DD[Aib][Aib]FL[PyrS2″][3Thi][Bta]Q-NH2 (staple 1-4, 4-11; also: earlier eluting HPLC peak (staple isomer composition)) [I-1179]

IC50 [1]: 25 nM
EC50 [2]: 25 nM
Binder: Ac-[αAllylPro]D[tBuAla][B5(4)]DD[Aib]AFL[PyrS2″][3Thi][Bta]Q-NH2 (staple 1-4, 4-11) [I-1177]

IC50 [12]: 112 nM
EC50 [6]: 112 nM
Binder: Ac-[αAllylPro]D[tBuAla][B5(4)]D[Phe(3-COOH)]AAFS[PyrS2″][3Thi][Bta]Q-NH2 (staple 1-4, 4-11; also: earlier eluting HPLC staple isomer) [I-978]

IC50 [5]: 2320 nM
EC50 [6]: 2320 nM
B3: I-969 (peptide)
peptide: Ac-[αAllylPro]D[tBuAla][B5(25)]D[EtGA]AAFT[PyrS2″][3Thi][Bta]Q-NH2
modifications: staple 1-4, 4-11; not fully specified; printed as Ac-PL3-Asp-Npg-B5-Asp-EtGA-Ala-Ala-Phe-Thr-PyrS2-3Thi-BztA-Gln-NH2

IC50 [3]: 21 nM
B4: I-1538 (peptide)
peptide: Ac-[αAllylPro]D[hLeu][B5(15)]DEAAF[hSer][S8]F[Bta]Q-NH2
modifications: staple 1-4, 4-11; not fully specified; printed as Ac-PL3-Asp-Hleu-B5-Asp-Glu-Ala-Ala-Phe-Hse-S8-Phe-BztA-Gln-NH2

Further lines, the binder ahead of its results:

Binder: Ac-[αAllylPro]D[tBuAla][B5(18)]DDAAFT[PyrS2″][Phe(2-Cl)][Bta]Q-NH2 (staple 1-4, 4-11) [I-1013]
EC50 [3]: 8 nM
IC50 [4]: 8 nM

Binder: Ac-[αAllylPro]D[tBuAla][B5(5)]D[TfeGA]AFFN[PyrS2″][Phe(2-Cl)][Bta]Q-NH2 (staple 1-4, 4-11) [I-1003]
EC50 [3]: 38 nM
IC50 [4]: 38 nM

Binder: Ac-[αAllylPro]D[tBuAla][B5(4)]D[EtGA]AAFS[PyrS2″][3Thi][Bta]S-NH2 (staple 1-4, 4-11; also: earlier eluting HPLC staple isomer) [I-974]
IC50 [5]: 1780 nM
EC50 [6]: 1780 nM

Binder: Ac-[αAllylPro]D[tBuAla][B5(25)]D[EtGA]AAFS[PyrS2″][3Thi][Bta]Q-NH2 (staple 1-4, 4-11; also: earlier-eluting HPLC staple isomer) [I-966]
IC50 [5]: 2020 nM
EC50 [6]: 2020 nM

Binder: Ac-[αAllylPro]F[tBuAla][B5]DDAADN[PyrS2][3Thi][Bta]H-NH2 (staple 1-4, 4-11) [I-796]
EC50 [7]: 8140 nM

Binder: Ac-[αAllylPro]D[tBuAla][B5(25)]D[EtGA]AAFT[PyrS2″][3Thi][Bta]Q-NH2 (staple 1-4, 4-11; also: earlier-eluting HPLC staple isomer) [I-968]
IC50 [5]: 2980 nM
EC50 [6]: 2980 nM

B1: I-1537 (peptide)
peptide: Ac-[αAllylPro]D[hLeu][B5(15)]DEAAF[hSer][S8]F[Bta]Q-NH2
modifications: staple 1-4, 4-11; not fully specified; printed as Ac-PL3-Asp-Hleu-B5-Asp-Glu-Ala-Ala-Phe-Hse-S8-Phe-BztA-Gln-NH2
IC50 [3]: 31 nM

Binder: Ac-[αAllylPro]D[Cha][B5(21)]DTAAFL[PyrS2″][3Thi][Bta]Q-NH2 (staple 1-4, 4-11) [I-1174]
IC50 [1]: 43 nM
EC50 [2]: 43 nM

Binder: Ac-[αAllylPro]D[tBuAla][B5(4)]DFAAFL[PyrS2″][3Thi][Bta]Q-NH2 (staple 1-4, 4-11) [I-1441]
IC50 [1]: 327 nM
EC50 [8]: 327 nM

Binder: Ac-[αAllylPro]D[tBuAla][B5(4)]D[EtGA]AAFS[PyrS2″][3Thi][Bta]S-NH2 (staple 1-4, 4-11; also: later eluting HPLC staple isomer) [I-975]
IC50 [5]: 2240 nM
EC50 [6]: 1710 nM

Binder: Ac-[αAllylPro]DI[B5(4)]DEAA[2Thi]Q[S8]F[Bta]Q-NH2 (staple 1-4, 4-11) [I-485]
NanoBRET Abs IC50 [9]: 11300 nM
EC50 [10]: 34 nM
IC50 [11]: 34 nM

Binder: Ac-[αAllylPro]D[tBuAla][B5(21)]DTAAFL[PyrS2″][Phe(2-Cl)][Bta]S-NH2 (staple 1-4, 4-11) [I-1172]
IC50 [1]: 45 nM
EC50 [2]: 45 nM

B2: I-967 (peptide)
peptide: Ac-[αAllylPro]D[tBuAla][B5(25)]D[EtGA]AAFS[PyrS2″][3Thi][Bta]Q-NH2
modifications: staple 1-4, 4-11; not fully specified; printed as Ac-PL3-Asp-Npg-B5-Asp-EtGA-Ala-Ala-Phe-Ser-PyrS2-3Thi-BztA-Gln-NH2
IC50 [5]: 1740 nM
EC50 [6]: 1740 nM

Binder: Ac-[αAllylPro]D[tBuAla][B5(18)]DNAAFT[PyrS2″][Phe(2-Cl)][Bta]Q-NH2 (staple 1-4, 4-11) [I-1014]
EC50 [3]: 19 nM
IC50 [4]: 19 nM

Binder: Ac-[αAllylPro]D[tBuAla][B5(21)]DDA[Aib]FL[PyrS2″][3Thi][Bta]Q-NH2 (staple 1-4, 4-11) [I-1178]
IC50 [1]: 54.5 nM
EC50 [2]: 54.5 nM

Binder: Ac-[αAllylPro]D[tBuAla][B5(18)]DNAAFS[PyrS2″][Phe(2-Cl)][Bta]Q-NH2 (staple 1-4, 4-11) [I-1018]
EC50 [3]: 26 nM
IC50 [4]: 26 nM

Binder: Ac-[αAllylPro]D[tBuAla][B5(5)][3Thi][TfeGA]AAFN[PyrS2″]D[Bta]Q-NH2 (staple 1-4, 4-11) [I-1001]
EC50 [3]: 5530 nM
IC50 [4]: 7220 nM

Binder: Ac-[αAllylPro]D[tBuAla][B5(23)]NNAAFN[PyrS2][3Thi][Bta]Q-NH2 (staple 1-4, 4-11) [I-1555]
IC50 [3]: 180 nM
